Data: PMC7473711, “Characterization of the different oligomeric states of the DAN family antagonists SOSTDC1 and SOST” (Biochemical Journal, 2020)

Columns and labels:
[1] = target: the molecule itself; assay: SEC; analytical SEC, Superdex S75 HR 10/300, room temperature, 0.5 ml/min, 20 mM HEPES, 1 M NaCl, pH 7.5; 100-150 µg protein loaded; self-association
[2] = target: the molecule itself; assay: SEC; protein that was monomeric at low pH (pH 3.0) neutralised to pH 7.5 and run again on SEC

Protein | stoichiometry N [1] | stoichiometry N [2]
chicken SOSTDC1 (Sclerostin domain containing protein 1), residues 23-206 (natural protein, UniProt Q6VYA3 23-206, looked up, SOSTDC1, chicken, amino acid residues 23-206, cloned into pET21a from pCS2-Flag-cSOSTDC1; 20.7 kDa; The vector is pET21a; also called cSOSTDC1; Wise) AFKNDATEILYSHVVKPAPASPSSNSTLNQARNGGRHYAGTGSDRNNRVQVGCRELRSTKYISDGQCTSINPLKELVCAGECLPLPLLPNWIGGGYGTKYWSRRSSQEWRCVNDKTRTQRIQLQCQDGSIRTYKITVVTACKCKRYTRQHNESSHNFEGTSQAKPVQHHKERKRASKSSKHSTS | 2 | –
Gremlin2 (natural protein, Gremlin2 (Grem2); also called Grem2) RKNRPAGAIPSPYKDGSSNNSERWHHQIKEVLASSQEALVVTERKYLKSDWCKTQPLRQTVSEEGCRSRTILNRFCYGQCNSFYIPRHVKKEEDSFQSCAFCKPQRVTSVIVELECPGLDPPFRIKKIQKVKHCRCMSVNLSDSDKQ | – | 2
human SOSTDC1 (Sclerostin domain containing protein 1) (natural protein, UniProt Q6X4U4 24-206, looked up, native glycosylation, signal peptide in the construct; SOSTDC1, human, full-length gene made by gene synthesis and codon optimised (GenScript), in pcDNA4 (pCDNA4-hSOSTDC1-PP-Myc-His); secreted into conditioned medium; after cleavage the residues LEVLFQ probably stay on the C-terminus (surmised); The secreted protein probably lacks its signal peptide (surmised); also called hSOSTDC1; Wise; source: Expi293F, transiently …) FKNDATEILYSHVVKPVPAHPSSNSTLNQARNGGRHFSNTGLDRNTRVQVGCRELRSTKYISDGQCTSISPLKELVCAGECLPLPVLPNWIGGGYGTKYWSRRSSQEWRCVNDKTRTQRIQLQCQDGSTRTYKITVVTACKCKRYTRQHNESSHNFESMSPAKPVQHHRERKRASKSSKHSMS | 2 | –
